Patent US20130011875A1

What was measured:
[1] = biological target: TNFRII-Fc (tumor necrosis factor receptor 2 ectodomain fused to Fc region of IgG1); test: cell-based or functional assay
[2] = biological target: recombinant human Met-granulocyte colony-stimulating factor (rHuMetGCSF) (Homo sapiens) (UniProt P09919); test: cell-based or functional assay

Chain of TNFRII-Fc (tumor necrosis factor receptor 2 ectodomain fused to Fc region of IgG1) (chain, as listed by the source limits assumed): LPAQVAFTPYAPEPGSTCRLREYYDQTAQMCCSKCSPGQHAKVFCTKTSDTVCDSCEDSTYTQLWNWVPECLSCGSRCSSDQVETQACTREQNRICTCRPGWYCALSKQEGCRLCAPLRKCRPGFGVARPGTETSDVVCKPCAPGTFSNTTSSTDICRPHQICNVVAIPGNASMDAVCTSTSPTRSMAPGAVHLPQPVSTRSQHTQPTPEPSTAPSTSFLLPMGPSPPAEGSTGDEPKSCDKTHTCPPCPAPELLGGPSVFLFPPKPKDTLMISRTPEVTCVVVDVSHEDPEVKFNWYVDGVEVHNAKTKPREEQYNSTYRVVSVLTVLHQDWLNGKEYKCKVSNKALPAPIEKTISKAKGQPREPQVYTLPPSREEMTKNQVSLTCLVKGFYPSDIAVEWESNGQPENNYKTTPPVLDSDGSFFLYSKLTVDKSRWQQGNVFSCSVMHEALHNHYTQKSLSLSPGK

Substance: Pichia pastoris vacuolar protein sorting receptor 10-1 (Vps10-1) (from UniProt C4R192 21-1542)
- relative TNFRII-Fc titer in deep-well plate supernatant (ELISA), vps10-1 deletion mutants yGLY9992 and yGLY9993 against parental wild-type strain yGLY8292 [1]: 10 fold
- relative rhGCSF titer in fermentation supernatant (GCSF ELISA), vps10-1 deletion mutant yGLY9933 against parental strain yGLY8538 [2]: > 7 fold
